Reference: patent US20150322165A1 (SAMSUNG ELECTRONICS, published 2015)

Experiments:
[1] = biological target: T1, human c-Met/Fc fusion protein (R&D Systems) (human, UniProt P08581 25-932); assay: ELISA, hybridoma culture on plate-bound human c-Met/Fc fusion protein
T1 construct: Bought reagent, coated on ELISA plates; also called human c-Met/Fc protein; not shown: Fc part of the bought fusion; not described
Procedure: The hybridoma cell culture obtained in Reference Example 1.1.2 was added in an amount of 50 μL to each well of the plates and incubated for 1 hour. The cells remaining unreacted were washed out with a sufficient amount of Tris-buffered saline and Tween 20 (TBST). Goat anti-mouse IgG-horseradish peroxidase (HRP) was added to the plates and incubated for 1 hour at room temperature. The plates were washed with a sufficient amount of TBST, followed by reacting the peroxidase with a substrate (OPD). Absorbance at 450 nm was measured on an ELISA reader.

[2] = biological target: T2, HER3-Fc (#344-ER, R&D Systems) (UniProt P21860 20-643); assay: SPR (Biacore T100), MEH3-01S captured by human Fab binder on CM5 chip, HER3-Fc injected
T2 construct: Bought reagent; not shown: Fc part of the bought fusion; not described
T2 sequence (P21860 20-643 limits assumed): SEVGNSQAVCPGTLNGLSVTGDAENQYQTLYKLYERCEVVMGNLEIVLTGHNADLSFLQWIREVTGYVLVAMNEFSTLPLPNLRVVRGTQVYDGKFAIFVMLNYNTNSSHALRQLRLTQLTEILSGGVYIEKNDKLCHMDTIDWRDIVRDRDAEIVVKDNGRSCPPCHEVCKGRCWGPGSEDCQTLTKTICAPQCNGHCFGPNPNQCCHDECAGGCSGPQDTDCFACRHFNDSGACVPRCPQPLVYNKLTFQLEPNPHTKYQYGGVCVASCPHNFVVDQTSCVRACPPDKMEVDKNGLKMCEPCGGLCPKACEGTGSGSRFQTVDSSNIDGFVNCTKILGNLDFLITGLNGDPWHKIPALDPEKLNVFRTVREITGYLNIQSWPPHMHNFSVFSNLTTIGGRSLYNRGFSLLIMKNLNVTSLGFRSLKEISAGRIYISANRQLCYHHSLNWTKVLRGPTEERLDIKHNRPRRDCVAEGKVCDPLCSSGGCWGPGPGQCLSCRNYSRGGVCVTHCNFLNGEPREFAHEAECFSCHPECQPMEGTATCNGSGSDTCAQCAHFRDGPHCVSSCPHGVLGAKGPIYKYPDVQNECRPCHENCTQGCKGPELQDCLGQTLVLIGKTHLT
Procedure: (§1) The affinity of the anti-c-Met/anti-EGFR/anti-HER3 multispecific antibody prepared in Example 2 to EGFR and HER3 was measured. A human Fab binder (GE Healthcare) was immobilized at the surface of a CM5 chip (#BR-1005-30, GE) according to the manufacturer's specifications. About 90 to 120 RU of the MEH3-01S was captured, and the EGFR-Fc(#344-ER, R&D Systems) or HER3-Fc(#344-ER, R&D Systems) was injected at various concentrations into the captured antibody. 10 mM Glycine-HCl (pH 1.5) solution was injected thereto to regenerate the surface.
(§2) To examine affinity of the antibody, the data obtained from this experiment was fitted using BIAevaluation software (GE Healthcare, Biacore T100 evaluation software).

[3] = biological target: T3, EGFR-Fc (#344-ER, R&D Systems) (UniProt P00533 25-645); assay: SPR (Biacore T100), MEH3-01S captured by human Fab binder on CM5 chip, EGFR-Fc injected
T3 construct: Bought reagent; not shown: Fc part of the bought fusion; not described
Procedure: as §1, §2

T1 sequence (P08581 25-932 limits assumed): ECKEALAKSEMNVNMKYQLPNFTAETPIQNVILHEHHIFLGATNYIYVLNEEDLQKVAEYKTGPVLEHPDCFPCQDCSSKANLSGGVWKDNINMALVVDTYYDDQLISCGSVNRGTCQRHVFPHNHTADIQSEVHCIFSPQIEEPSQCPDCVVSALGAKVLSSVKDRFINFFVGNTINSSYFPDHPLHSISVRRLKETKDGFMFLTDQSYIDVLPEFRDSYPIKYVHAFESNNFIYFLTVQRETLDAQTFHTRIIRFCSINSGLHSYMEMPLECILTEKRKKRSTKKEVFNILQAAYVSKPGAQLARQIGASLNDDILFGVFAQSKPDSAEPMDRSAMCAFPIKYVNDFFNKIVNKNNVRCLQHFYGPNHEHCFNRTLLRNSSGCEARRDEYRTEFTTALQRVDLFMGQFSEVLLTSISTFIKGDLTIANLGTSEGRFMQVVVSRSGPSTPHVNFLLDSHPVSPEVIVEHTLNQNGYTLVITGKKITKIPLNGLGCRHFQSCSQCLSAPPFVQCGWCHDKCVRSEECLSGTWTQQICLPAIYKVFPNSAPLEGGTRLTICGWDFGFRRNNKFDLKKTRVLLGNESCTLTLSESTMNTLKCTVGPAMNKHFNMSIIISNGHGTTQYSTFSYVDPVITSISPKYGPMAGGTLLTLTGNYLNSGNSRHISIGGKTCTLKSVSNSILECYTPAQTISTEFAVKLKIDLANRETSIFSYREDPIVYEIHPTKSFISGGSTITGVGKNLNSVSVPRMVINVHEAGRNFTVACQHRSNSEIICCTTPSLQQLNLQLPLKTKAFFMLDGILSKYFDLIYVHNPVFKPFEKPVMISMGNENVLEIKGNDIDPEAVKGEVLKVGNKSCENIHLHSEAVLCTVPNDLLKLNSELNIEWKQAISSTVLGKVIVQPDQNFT

B1: AbF46, a mouse antibody to c-Met (antibody, V domains shown)
VH: EVKLVESGGGLVQPGGSLRLSCATSGFTFTDYYMSWVRQPPGKALEWLGFIRNKANGYTTEYSASVKGRFTISRDNSQSILYLQMDTLRAEDSATYYCARDNWFAYWGQGTLVTVSA
VL: DILMTQSPSSLTVSAGEKVTMSCKSSQSLLASGNQNNYLAWHQQKPGRSPKMLIIWASTRVSGVPDRFIGSGSGTDFTLTINSVQAEDLAVYYCQQSYSAPLTFGAGTKLELK
notes: Tested as hybridoma culture supernatant in the selection ELISA; also called monoclonal antibody of hybridoma KCLRF-BP-00220
binding result [1]: binds

B2: anti-c-Met/anti-EGFR/anti-HER3 multispecific antibody MEH3-01S (bispecific antibody, human IgG2, kappa)
heavy: EVQLVESGGGLVQPGGSLRLSCAASGFTFTDYYMSWVRQAPGKGLEWLGFIRNKANGYTTEYSASVKGRFTISRDNSKNTLYLQMNSLRAEDTAVYYCARDNWFAYWGQGTLVTVSSASTKGPSVFPLAPCSRSTSESTAALGCLVKDYFPEPVTVSWNSGALTSGVHTFPAVLQSSGLYSLSSVVTVPSSNFGTQTYTCNVDHKPSNTKVDKTVERKCCVECPPCPAPPVAGPSVFLFPPKPKDTLMISRTPEVTCVVVDVSHEDPEVQFNWYVDGVEVHNAKTKPREEQFNSTFRVVSVLTVVHQDWLNGKEYKCKVSNKGLPAPIEKTISKTKGQPREPQVYTLPPSREEMTKNQVSLTCLVKGFYPSDIAVEWESNGQPENNYKTTPPMLDSDGSFFLYSKLTVDKSRWQQGNVFSCSVMHEALHNHYTQKSLSLSPGKGGGGSGGGGSGGGGSEVQLVESGGGLVQPGGSLRLSCAASGFTLSGDWIHWVRQAPGKCLEWVGEISAAGGYTDYADSVKGRFTISADTSKNTAYLQMNSLRAEDTAVYYCARESRVSFEAAMDYWGQGTLVTVSSGGGGSGGGGSGGGGSDIQMTQSPSSLSASVGDRVTITCRASQNIATDVAWYQQKPGKAPKLLIYSASFLYSGVPSRFSGSGSGTDFTLTISSLQPEDFATYYCQQSEPEPYTFGCGTKVEIK
light: DIQMTQSPSSLSASVGDRVTITCKSSQSLLASGNQNNYLAWYQQKPGKAPKMLIIWASTRVSGVPSRFSGSGSGTDFTLTISSLQPEDFATYYCQQSYSRPYTFGQGTKVEIKRTVAAPSVFIFPPSDEQLKSGTASVVCLLNNFYPREAKVQWKVDNALQSGNSQESVTEQDSKDSTYSLSSTLTLSKADYEKHKVYACEVTHQGLSSPVTKSFNRGEC
notes: DL11f scFv fused to the C-terminus of the heavy chain (Fc) of the anti-c-Met IgG2 antibody SAIT301
Kd [2]: < 0.01 nM
koff [2]: < 1.6e-05 s⁻¹
kon [2]: 3.4e+06 M⁻¹ s⁻¹
Kd [3]: 0.18 nM
koff [3]: 0.00011 s⁻¹
kon [3]: 1e+06 M⁻¹ s⁻¹
